Source: article PMC10066265, “Inhibitor-3 inhibits Protein Phosphatase 1 via a metal binding dynamic protein–protein interaction” (Nature Communications, 2023)
Where “and” joins values, the source holds several entries; their conditions need not be identical. Equal entries are not always repeated.

Key:
Details in all cases: both partners purified
[1] = biological target: T1, PP1α_(7-330) (UniProt P62136 7-330); assay: SPR; as a1 but pH 6.5; His6-PP1 captured on Ni-NTA chip, I3_(27-68) injected; two state model
T1 construct: Protein Phosphatase 1 alpha (PP1α), residues 7-330; His6-PP1 was captured on the Ni-NTA sensor chip as the SPR ligand; Mn2+ in all buffers; also called Protein Phosphatase 1; His6-PP1; source: E. coli, purified (Ni-NTA, SEC)
T1 sequence (P62136 7-330): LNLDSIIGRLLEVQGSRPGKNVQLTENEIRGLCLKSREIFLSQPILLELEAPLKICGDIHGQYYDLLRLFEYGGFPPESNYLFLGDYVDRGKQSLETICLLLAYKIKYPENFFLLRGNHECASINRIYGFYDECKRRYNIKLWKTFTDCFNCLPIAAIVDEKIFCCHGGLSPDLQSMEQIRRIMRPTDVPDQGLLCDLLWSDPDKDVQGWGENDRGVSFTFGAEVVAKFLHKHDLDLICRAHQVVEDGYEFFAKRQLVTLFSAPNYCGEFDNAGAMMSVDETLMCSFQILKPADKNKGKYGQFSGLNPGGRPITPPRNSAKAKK

[2] = biological target: T1, PP1α_(7-330); assay: SPR; as a1 but pH 7.0; His6-PP1 captured on Ni-NTA chip, I3_(27-68) injected; two state model
[3] = biological target: T1, PP1α_(7-330); assay: SPR; as a1 but pH 7.5; His6-PP1 captured on Ni-NTA chip, I3_(27-68) injected; two state model
[4] = biological target: T1, PP1α_(7-330); assay: SPR; His6-PP1 captured on Ni-NTA chip (NiHC200M), I3 variants injected; 25 °C; 20 mM Tris pH 8.0, 500 mM NaCl, 1 mM MnCl2, 0.5 mM TCEP, 0.05% Tween-20; one-to-one one state or one-to-one two state model (TraceDrawer)
[5] = biological target: T2, PP1α_(7-330) C273S (UniProt P62136 7-330, C273S); assay: as above
T2 construct: Protein Phosphatase 1 alpha (PP1α), residues 7-330, C273S; His6-tagged form captured on the Ni-NTA sensor chip; also called PP1 C273S; source: E. coli, purified (Ni-NTA, SEC)
T2 sequence (P62136 7-330 C273S): as the sequence (P62136 7-330) above, with C267S counted along it

[6] = biological target: T3, PP1α_(7-330) H248N (UniProt P62136 7-330, H248N); assay: as above
T3 construct: Protein Phosphatase 1 alpha (PP1α), residues 7-330, H248N; His6-tagged form captured on the Ni-NTA sensor chip; also called PP1 H248N; source: E. coli, purified (Ni-NTA, SEC)
T3 sequence (P62136 7-330 H248N): as the sequence (P62136 7-330) above, with H242N counted along it

[7] = biological target: T4, PP1α_(7-330) H66K (UniProt P62136 7-330, H66K); assay: as above
T4 construct: Protein Phosphatase 1 alpha (PP1α), residues 7-330, H66K (lacks the M1 metal); His6-tagged form captured on the Ni-NTA sensor chip; also called PP1 H66K; source: E. coli, purified (Ni-NTA, SEC)
T4 sequence (P62136 7-330 H66K): as the sequence (P62136 7-330) above, with H60K counted along it

B1: I3_(27-68) (I3 PP1 interaction domain) (domain or fragment, human, UniProt O60927 27-68, looked up)
chain: SLTIKLRKRKPEKKVEWTSDTVDNEHMGRRSSKCCCIYEKPR
notes: PPP1R11), human, residues 27-68; source: E. coli BL21 (DE3), purified (Ni-NTA, TEV cleavage, heat, SEC); not shown: His6, N-terminal, cleaved; MBP, N-terminal, cleaved
[1]
  Kd: 16.2 nM and 17.7 nM and 17.1 nM
[2]
  Kd: 14.9 nM and 16.2 nM and 17.1 nM
[3]
  Kd: 8.32 nM and 9.2 nM and 9.58 nM
[4]
  Kd: 9.87 nM and 7.88 nM and 10.5 nM and 9.04 nM
[5]
  Kd: 16.9 nM and 15.8 nM and 15.6 nM
[6]
  Kd: 7.74 nM and 5.38 nM
[7]
  Kd: 6.66 nM and 5.65 nM and 5.52 nM
